Data on 4 molecules can be found in paper PMC3664792 (Nucleic Acids Research, 2013).

Experiment [1] has as its target α270 in construct A (εCTS35–α270) (E. coli, UniProt P10443 1-270). The experiment can be described thus: NMR.
In experiment [2] the target is α270(L21P) in construct A (E. coli, UniProt P10443 1-270, Leu21Pro). Briefly: crystal structure.
Another experiment addresses His6-αGL (E. coli, UniProt P10443 1-1160, A921L | M923L | Val832Gly). The experiment can be described thus: pull-down.
A further experiment deals with β2 sliding clamp (E. coli, UniProt P0A988 1-366). The experiment can be described thus: SEC. In general terms: In gel filtration, larger molecules generally elute earlier.
A further experiment concerns the target α270-His6 (E. coli, UniProt P10443 1-270). The experiment can be described thus: NMR.

For the molecule ASKLRVVFATDEEIAAHEARLDLVQKKGGSCLWRA (domain or fragment) [εCTS35 (residues 209–243 of ε) in construct A], the binding result in experiment [1] and in experiment [2] was “binds” throughout.

B1: εL (natural protein)
chain: MSTAITRQIVLDTETTGMNQIGAHYEGHKIIEIGAVEVVNRRLTGNNFHVYLKPDRLVDPEAFGVHGIADEFLLDKPTFAEVADEFMDYIRGAELVIHNAAFDIGFMDYEFSLLKRDIPKTNTFCKVTDSLAVARKMFPGKRNSLDALCARYEIDNSKRTLHGALLDAQILAEVYLAMTGGQLSLPLAMEGETQQQQGEATIQRIVRQASKLRVVFATDEEIAAHEARLDLVQKKGGSCLWRA
Consider B1, for which the binding result with His6-αGL and with β2 sliding clamp was “binds” each time.

B2: εCTS59 (domain or fragment)
chain: MAFAMEGETQQQQGEATIQRIVRQASKLRVVFATDEEIAAHEARLDLVQKKGGSCLWRA
With B2, the binding result in the experiment with α270-His6 is “binds”.

On to ATIQRIVRQASKLRVVFATDEEIAAHEARLDLVQKKGGSCLWRA (domain or fragment) [εCTS44 (residues 200–243 of ε) in construct A], for which the binding result in experiment [2] was “binds”.
